The target in assay [1] is T1, pol κ76, 76-kDa alternatively spliced isoform of DNA polymerase κ (human, UniProt Q9UBT6 1-870).
T1 construct: 672-residue open reading frame (GenBank AF315602), cloned by RT-PCR from human foreskin RNA with ON-DIN5'm and ON-DIN-THc; It was inserted BamHI/SalI into FLAG-modified pGBT9 and pGAD424; also called 76-kDa pol κ isoform; not shown: N-terminal yeast two-hybrid fusion part from the FLAG-modified pGBT9 or pGAD424 vector (Clontech) plus FLAG peptide; No
T1 sequence: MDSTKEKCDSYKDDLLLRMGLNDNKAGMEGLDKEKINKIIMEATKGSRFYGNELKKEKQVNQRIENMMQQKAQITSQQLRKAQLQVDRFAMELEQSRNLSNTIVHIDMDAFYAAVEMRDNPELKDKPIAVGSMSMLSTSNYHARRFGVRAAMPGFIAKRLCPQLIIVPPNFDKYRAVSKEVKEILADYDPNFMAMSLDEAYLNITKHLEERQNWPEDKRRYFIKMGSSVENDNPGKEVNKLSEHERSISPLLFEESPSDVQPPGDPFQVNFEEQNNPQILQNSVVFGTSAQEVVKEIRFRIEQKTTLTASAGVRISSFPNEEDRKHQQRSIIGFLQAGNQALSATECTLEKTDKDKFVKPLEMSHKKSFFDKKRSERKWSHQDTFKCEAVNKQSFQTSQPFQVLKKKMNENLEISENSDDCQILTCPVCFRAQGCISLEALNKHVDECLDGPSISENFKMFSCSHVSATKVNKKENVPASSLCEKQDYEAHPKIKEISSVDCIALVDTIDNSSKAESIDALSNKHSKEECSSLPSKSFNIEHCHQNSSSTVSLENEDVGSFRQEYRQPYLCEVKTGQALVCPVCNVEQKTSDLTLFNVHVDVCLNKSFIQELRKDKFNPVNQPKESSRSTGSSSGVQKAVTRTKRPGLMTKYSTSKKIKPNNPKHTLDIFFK
The assay can be described thus: yeast two-hybrid.

The target in assay [2] is T2, pol κ, DNA polymerase κ, the primary protein product of POLK (human, UniProt Q9UBT6 1-870).
T2 construct: not shown: N-terminal yeast two-hybrid fusion part from the FLAG-modified pGBT9 or pGAD424 vector (Clontech) plus FLAG peptide; No
T2 sequence (looked up): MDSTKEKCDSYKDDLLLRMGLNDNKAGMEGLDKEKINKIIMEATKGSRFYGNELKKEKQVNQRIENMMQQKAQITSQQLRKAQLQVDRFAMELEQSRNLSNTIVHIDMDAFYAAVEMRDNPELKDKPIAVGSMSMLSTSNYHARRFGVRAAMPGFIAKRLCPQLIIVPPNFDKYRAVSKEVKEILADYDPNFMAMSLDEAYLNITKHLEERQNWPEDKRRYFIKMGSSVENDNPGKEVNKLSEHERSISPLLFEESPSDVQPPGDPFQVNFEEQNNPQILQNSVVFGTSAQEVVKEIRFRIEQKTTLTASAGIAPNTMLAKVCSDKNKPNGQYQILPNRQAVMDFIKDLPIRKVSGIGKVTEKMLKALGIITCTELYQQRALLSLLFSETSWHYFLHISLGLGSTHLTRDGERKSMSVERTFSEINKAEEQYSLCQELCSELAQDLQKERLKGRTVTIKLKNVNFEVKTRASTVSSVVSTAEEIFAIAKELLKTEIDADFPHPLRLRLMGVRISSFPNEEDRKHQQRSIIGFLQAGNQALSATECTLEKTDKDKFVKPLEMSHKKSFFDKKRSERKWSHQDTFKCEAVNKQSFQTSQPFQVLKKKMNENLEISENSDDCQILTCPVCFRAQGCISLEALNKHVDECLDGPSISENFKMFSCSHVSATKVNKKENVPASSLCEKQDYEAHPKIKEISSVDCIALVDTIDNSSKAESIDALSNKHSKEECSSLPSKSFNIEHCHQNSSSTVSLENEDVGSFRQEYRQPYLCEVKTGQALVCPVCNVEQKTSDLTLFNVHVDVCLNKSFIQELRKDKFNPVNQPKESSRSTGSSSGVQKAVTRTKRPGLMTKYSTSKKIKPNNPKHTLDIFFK
The assay can be described thus: yeast two-hybrid.

B1: GPBPΔ26, alternatively spliced GPBP variant deleted for 26 amino acid residues (enzyme)
chain: MSDNQSWNSSGSEEDPETESGPPVERCGVLSKWTNYIHGWQDRWVVLKNNALSYYKSEDETEYGCRGSICLSKAVITPHDFDECRFDISVNDSVWYLRAQDPDHRQQWIDAIEQHKTESGYGSESSLRRHGSMVSLVSGASGYSATSTSSFKKGHSLREKLAEMETFRDILCRQVDTLQKYFDACADAVSKDELQRDKVVEDDEDDFPTTRSDGDFLHSTNGNKEKLFPHVTPKGINGIDFKGEAITFKATTAGILATLSHCIELMVKREDSWQKRLDKETEKKRRTEEAYKNAMTELKKKSHFGGPDYEEGPNSLINEEEFFDAVEAALDRQDKIEEQSQSEKVRLHWPTSLPSGDAFSSVGTHRFVQKVEEMVQNHMTYSLQDVGGDANWQLVVEEGEMKVYRREVEENGIVLDPLKATHAVKGVTGHEVCNYFWNVDVRNDWETTIENFHVVETLADNAIIIYQTHKRVWPASQRDVLYLSVIRKIPALTENDPETWIVCNFSVDHDSAPLNNRCVRAKINVAMICQTLVSPPEGNQEISRDNILCKITYVANVNPGGWAPASVLRAVAKREYPKFLKRFTSYVQEKTAGKPILF
notes: The two-hybrid construct is not described; also called GPBP?26; GPBPD26
As for B1, the binding result in assay [1] and in assay [2] was “no binding” in each case.

B2: Goodpasture antigen binding protein (GPBP) (enzyme, human, UniProt Q9Y5P4 1-624, looked up)
chain: MSDNQSWNSSGSEEDPETESGPPVERCGVLSKWTNYIHGWQDRWVVLKNNALSYYKSEDETEYGCRGSICLSKAVITPHDFDECRFDISVNDSVWYLRAQDPDHRQQWIDAIEQHKTESGYGSESSLRRHGSMVSLVSGASGYSATSTSSFKKGHSLREKLAEMETFRDILCRQVDTLQKYFDACADAVSKDELQRDKVVEDDEDDFPTTRSDGDFLHSTNGNKEKLFPHVTPKGINGIDFKGEAITFKATTAGILATLSHCIELMVKREDSWQKRLDKETEKKRRTEEAYKNAMTELKKKSHFGGPDYEEGPNSLINEEEFFDAVEAALDRQDKIEEQSQSEKVRLHWPTSLPSGDAFSSVGTHRFVQKPYSRSSSMSSIDLVSASDDVHRFSSQVEEMVQNHMTYSLQDVGGDANWQLVVEEGEMKVYRREVEENGIVLDPLKATHAVKGVTGHEVCNYFWNVDVRNDWETTIENFHVVETLADNAIIIYQTHKRVWPASQRDVLYLSVIRKIPALTENDPETWIVCNFSVDHDSAPLNNRCVRAKINVAMICQTLVSPPEGNQEISRDNILCKITYVANVNPGGWAPASVLRAVAKREYPKFLKRFTSYVQEKTAGKPILF
For B2, the binding result in assay [1] and in assay [2] was “no binding” throughout.

Values taken from US20030027165A1 (published 2003).
